Results taken from patent publication US5445935.

Target: tryptophan repressor (TrpR) (UniProt P0A881 P0A881:2-108)
Experiment: FP; dimer-DNA Kd from linked monomer-dimer/DNA binding model (preferred fit; dimer-monomer Kd 3.5 nM); 0.2 nM DNA, 10 mM K phosphate, 0.1 mM EDTA, 10% glycerol, pH

B1: fluorescein-labeled 25-mer trp operator duplex (dsDNA)
DNA 1: CTTGCACTAGTTAACTAGTCAGCAA
DNA 2: TTGCTGACTAGTTAACTAGTGCAAG
  Kd: 0.23 nM
